According to the supplement of paper PMC10567573:

B1: INTS4 (parent)
chain: IRLVDDAFGKICHMVSDGSWVVRV

Variants of: B1
Assay: protein stability index of a GFP-peptide fusion (GPS, HEK-293T) (PSI 1-6); higher = more stable
Details: c terminus: a fixed tail appended
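Further: lentivirally expressed fusions sorted by FACS into six bins by GFP to DsRed ratio, PSI derived from sequencing read proportions per bin multiplied by bin number.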

| Variant | protein stability index |
| --- | --- |
| IRLVDDAFGKICHMLSDGSWVVRV [V15L] | 2.74 |
| IRLVDDAFGKICHMCSDGSWVVRV [V15C] | 4.47 |
| IRLVDDAFGKICHMDSDGSWVVRV [V15D] | 2.06 |
| IRLVDDAFGKICHMTSDGSWVVRV [V15T] | 3.2 |
| IRLVDDAFGKICHMNSDGSWVVRV [V15N] | 3.28 |
| IRLVDDAFGKICHMFSDGSWVVRV [V15F] | 2.51 |
| IRLVDDAFGKICHMSSDGSWVVRV [V15S] | 1.84 |
| IRLVDDAFGKICHMGSDGSWVVRV [V15G] | 3.51 |
| IRLVDDAFGKICHMASDGSWVVRV [V15A] | 3.99 |
| IRLVDDAFGKICHMRSDGSWVVRV [V15R] | 3.53 |
| IRLVDDAFGKICHMQSDGSWVVRV [V15Q] | 3.06 |
| IRLVDDAFGKICHMISDGSWVVRV [V15I] | 2.87 |
| IRLVDDAFGKICHMHSDGSWVVRV [V15H] | 2.22 |
| IRLVDDAFGKICHMKSDGSWVVRV [V15K] | 2.06 |
| IRLVDDAFGKICHMPSDGSWVVRV [V15P] | 3.17 |
| IRLVDDAFGKICHMVEDGSWVVRV [S16E] | 2.31 |
| IRLVDDAFGKICHMVMDGSWVVRV [S16M] | 2.25 |
| IRLVDDAFGKICHMVFDGSWVVRV [S16F] | 2.14 |
| IRLVDDAFGKICHMVRDGSWVVRV [S16R] | 2.56 |
| IRLVDDAFGKICHMVVDGSWVVRV [S16V] | 1.29 |
| IRLVDDAFGKICHMVIDGSWVVRV [S16I] | 2.59 |
| IRLVDDAFGKICHMVWDGSWVVRV [S16W] | 1.91 |
| IRLVDDAFGKICHMVDDGSWVVRV [S16D] | 1.29 |
| IRLVDDAFGKICHMVQDGSWVVRV [S16Q] | 2.47 |

| Variant | protein stability index |
| --- | --- |
| IRLVDDAFGKICHMVNDGSWVVRV [S16N] | 2.52 |
| IRLVDDAFGKICHMVLDGSWVVRV [S16L] | 3.17 |
| IRLVDDAFGKICHMVCDGSWVVRV [S16C] | 2.56 |
| IRLVDDAFVKICHMVSDGSWVVRV [G9V] | 2.6 |
| IRLVDDAFYKICHMVSDGSWVVRV [G9Y] | 3.11 |
| IRLVDDAFGKICHMVSRGSWVVRV [D17R] | 2.02 |
| IRLVDDAFGKICHMVSLGSWVVRV [D17L] | 2.79 |
| IRLVDDAFGKICHMVSPGSWVVRV [D17P] | 2.05 |
| IRLVDDAFGKICHMVSFGSWVVRV [D17F] | 1.24 |
| IRLVDDAFGKICHMVSQGSWVVRV [D17Q] | 3.32 |
| IRLVDDAFGKICHMVSKGSWVVRV [D17K] | 1.48 |
| IRLVDDAFGKICHMVSMGSWVVRV [D17M] | 1.92 |
| IRLVDDAFGKICHMVSEGSWVVRV [D17E] | 2.35 |
| IRLVDDAFGKICHMVSAGSWVVRV [D17A] | 3.62 |
| IRLVDDAFGKICHMVSGGSWVVRV [D17G] | 2.05 |
| IRLVDDAFGKICHMVSNGSWVVRV [D17N] | 2.41 |
| IRLVDDAFGKICHMVSHGSWVVRV [D17H] | 3.91 |
| IRLVDDAFGKICHMVSVGSWVVRV [D17V] | 3.15 |
| IRLVDDAFGKICHMVSCGSWVVRV [D17C] | 2.15 |
| IRLVDDAFGKICHMVSSGSWVVRV [D17S] | 3.98 |
| IRLVDDAFGNICHMVSDGSWVVRV [K10N] | 1.78 |
| IRLVDDAFGGICHMVSDGSWVVRV [K10G] | 2.29 |
| IRLVDDAFGPICHMVSDGSWVVRV [K10P] | 2.29 |
| IRLVDDAFGRICHMVSDGSWVVRV [K10R] | 4.19 |

| Variant | protein stability index |
| --- | --- |
| IRLVDDAFGCICHMVSDGSWVVRV [K10C] | 3.27 |
| IRLVDDAFGFICHMVSDGSWVVRV [K10F] | 2.4 |
| IRLVDDAFGIICHMVSDGSWVVRV [K10I] | 2.57 |
| IRLVDDAFGLICHMVSDGSWVVRV [K10L] | 2.96 |
| IRLVDDAFGKIWHMVSDGSWVVRV [C12W] | 3 |
| IRLVDDAFGKIGHMVSDGSWVVRV [C12G] | 5.66 |
| IRLVDDAFGKIKHMVSDGSWVVRV [C12K] | 4.92 |
| IRLVDDAFGKIDHMVSDGSWVVRV [C12D] | 3.58 |
| IRLVDDAFGKIAHMVSDGSWVVRV [C12A] | 3.65 |
| IRLVDDAFGKIRHMVSDGSWVVRV [C12R] | 4.2 |
| IRLVDDAFGKIFHMVSDGSWVVRV [C12F] | 1.73 |
| IRLVDDAFGKIHHMVSDGSWVVRV [C12H] | 2.35 |
| IRLVDDAFGKIQHMVSDGSWVVRV [C12Q] | 2.82 |
| IRLVDDAFGKINHMVSDGSWVVRV [C12N] | 2.44 |
| IRLVDDAFGKIPHMVSDGSWVVRV [C12P] | 3.97 |
| IRLVDDAFGKITHMVSDGSWVVRV [C12T] | 2.91 |
| IRLVDDAFGKICGMVSDGSWVVRV [H13G] | 2.97 |
| IRLVDDAFGKICYMVSDGSWVVRV [H13Y] | 2.38 |
| IRLVDDAFGKICIMVSDGSWVVRV [H13I] | 3.17 |
| IRLVDDAFGKICKMVSDGSWVVRV [H13K] | 3.46 |
| IRLVDDAFGKICMMVSDGSWVVRV [H13M] | 3.09 |
| IRLVDDAFGKICPMVSDGSWVVRV [H13P] | 2.63 |
| IRLVDDAFGKICDMVSDGSWVVRV [H13D] | 3.12 |
| IRLVDDAFGKICSMVSDGSWVVRV [H13S] | 1.3 |

| Variant | protein stability index |
| --- | --- |
| IRLVDDAFGKICAMVSDGSWVVRV [H13A] | 3.2 |
| IRLVDDAFGKMCHMVSDGSWVVRV [I11M] | 2.41 |
| IRLVDDAFGKSCHMVSDGSWVVRV [I11S] | 2.87 |
| IRLVDDAFGKNCHMVSDGSWVVRV [I11N] | 2.3 |
| IRLVDDAFGKHCHMVSDGSWVVRV [I11H] | 3.47 |
| IRLVDDAFGKCCHMVSDGSWVVRV [I11C] | 2.87 |
| IRLVDDAFGKQCHMVSDGSWVVRV [I11Q] | 2.63 |
| IRLVDDAFGKVCHMVSDGSWVVRV [I11V] | 3.14 |
| IRLVDDAFGKYCHMVSDGSWVVRV [I11Y] | 3.31 |
| IRLVDDAFGKICHHVSDGSWVVRV [M14H] | 3.19 |
| IRLVDDAFGKICHRVSDGSWVVRV [M14R] | 1.53 |
| IRLVDDAFGKICHTVSDGSWVVRV [M14T] | 3.71 |
| IRLVDDAFGKICHPVSDGSWVVRV [M14P] | 2.76 |
| IRLVDDAFGKICHSVSDGSWVVRV [M14S] | 2.48 |
| IRLVDDAFGKICHDVSDGSWVVRV [M14D] | 4.2 |
| IRLVDDAFGKICHNVSDGSWVVRV [M14N] | 5.13 |
| IRLVDDAFGKICHIVSDGSWVVRV [M14I] | 2.62 |
| IRLVDDAFGKICHYVSDGSWVVRV [M14Y] | 1.64 |
| IRLVDDAFGKICHFVSDGSWVVRV [M14F] | 3.85 |
| IRLVDDAFGKICHAVSDGSWVVRV [M14A] | 2.75 |
| IRLVDDAFGKICHQVSDGSWVVRV [M14Q] | 1.49 |
| IRLVDDAFGKICHVVSDGSWVVRV [M14V] | 4.58 |
